Measurements as given in patent US20020173049A1.
Non-standard residues stand in square brackets, D forms with d. No end group written: not given here. Ahx = NCCCCCC(=O)O

Target: E3α (rabbit)
Experiment: cell-based or functional assay

TCA-soluble 125I (cpm) from [125I]-lysozyme degradation in rabbit reticulocyte lysate at the 2 hour time point; no treatment 12,475 cpm: 3590 cpm
Substance: Phe-[Ahx]-Cys
